Key:
[1] = target: leucine-rich repeat kinase 2 (LRRK2) (UniProt Q5S007); test: cryo-EM structure; complex reconstituted by mixing LRRK2, Rab29EM, GTP analog (GppNHp), ATP and Mg2+; three oligomeric assemblies (monomer, dimer, tetramer); C2 symmetry imposed for dimer and tetramer; settings: remark: other sources report otherwise
[2] = target: leucine-rich repeat kinase 2 (LRRK2) (UniProt Q5S007); test: cryo-EM 2D classification; Rab29 T71A/S72A–LRRK2 complex; 2D classification performed with cross-correlation (fig. S9E); settings: remark: other sources report otherwise
[3] = target: T1, leucine-rich repeat kinase 2 (LRRK2) (UniProt Q5S007 1-2527); test: cryo-EM structure; complex reconstituted by mixing LRRK2, Rab29EM, GTP analog (GppNHp), ATP and Mg2+; three oligomeric assemblies (monomer, dimer, tetramer); C2 symmetry imposed for dimer and tetramer; settings: both partners purified
T1 construct: leucine-rich repeat kinase 2 (LRRK2), wild type; domains ARM, ANK, LRR, ROC, COR, KIN, WD40; Near full-length LRRK2^peri could be modelled in the tetramer; Seen as monomer, dimer and tetramer in complex with Rab29; Also stands for the WT LRRK2 transfected into HEK293 cells in the functional rows; also called WT LRRK2; LRRK2^peri
T1 sequence (Q5S007 whole entry): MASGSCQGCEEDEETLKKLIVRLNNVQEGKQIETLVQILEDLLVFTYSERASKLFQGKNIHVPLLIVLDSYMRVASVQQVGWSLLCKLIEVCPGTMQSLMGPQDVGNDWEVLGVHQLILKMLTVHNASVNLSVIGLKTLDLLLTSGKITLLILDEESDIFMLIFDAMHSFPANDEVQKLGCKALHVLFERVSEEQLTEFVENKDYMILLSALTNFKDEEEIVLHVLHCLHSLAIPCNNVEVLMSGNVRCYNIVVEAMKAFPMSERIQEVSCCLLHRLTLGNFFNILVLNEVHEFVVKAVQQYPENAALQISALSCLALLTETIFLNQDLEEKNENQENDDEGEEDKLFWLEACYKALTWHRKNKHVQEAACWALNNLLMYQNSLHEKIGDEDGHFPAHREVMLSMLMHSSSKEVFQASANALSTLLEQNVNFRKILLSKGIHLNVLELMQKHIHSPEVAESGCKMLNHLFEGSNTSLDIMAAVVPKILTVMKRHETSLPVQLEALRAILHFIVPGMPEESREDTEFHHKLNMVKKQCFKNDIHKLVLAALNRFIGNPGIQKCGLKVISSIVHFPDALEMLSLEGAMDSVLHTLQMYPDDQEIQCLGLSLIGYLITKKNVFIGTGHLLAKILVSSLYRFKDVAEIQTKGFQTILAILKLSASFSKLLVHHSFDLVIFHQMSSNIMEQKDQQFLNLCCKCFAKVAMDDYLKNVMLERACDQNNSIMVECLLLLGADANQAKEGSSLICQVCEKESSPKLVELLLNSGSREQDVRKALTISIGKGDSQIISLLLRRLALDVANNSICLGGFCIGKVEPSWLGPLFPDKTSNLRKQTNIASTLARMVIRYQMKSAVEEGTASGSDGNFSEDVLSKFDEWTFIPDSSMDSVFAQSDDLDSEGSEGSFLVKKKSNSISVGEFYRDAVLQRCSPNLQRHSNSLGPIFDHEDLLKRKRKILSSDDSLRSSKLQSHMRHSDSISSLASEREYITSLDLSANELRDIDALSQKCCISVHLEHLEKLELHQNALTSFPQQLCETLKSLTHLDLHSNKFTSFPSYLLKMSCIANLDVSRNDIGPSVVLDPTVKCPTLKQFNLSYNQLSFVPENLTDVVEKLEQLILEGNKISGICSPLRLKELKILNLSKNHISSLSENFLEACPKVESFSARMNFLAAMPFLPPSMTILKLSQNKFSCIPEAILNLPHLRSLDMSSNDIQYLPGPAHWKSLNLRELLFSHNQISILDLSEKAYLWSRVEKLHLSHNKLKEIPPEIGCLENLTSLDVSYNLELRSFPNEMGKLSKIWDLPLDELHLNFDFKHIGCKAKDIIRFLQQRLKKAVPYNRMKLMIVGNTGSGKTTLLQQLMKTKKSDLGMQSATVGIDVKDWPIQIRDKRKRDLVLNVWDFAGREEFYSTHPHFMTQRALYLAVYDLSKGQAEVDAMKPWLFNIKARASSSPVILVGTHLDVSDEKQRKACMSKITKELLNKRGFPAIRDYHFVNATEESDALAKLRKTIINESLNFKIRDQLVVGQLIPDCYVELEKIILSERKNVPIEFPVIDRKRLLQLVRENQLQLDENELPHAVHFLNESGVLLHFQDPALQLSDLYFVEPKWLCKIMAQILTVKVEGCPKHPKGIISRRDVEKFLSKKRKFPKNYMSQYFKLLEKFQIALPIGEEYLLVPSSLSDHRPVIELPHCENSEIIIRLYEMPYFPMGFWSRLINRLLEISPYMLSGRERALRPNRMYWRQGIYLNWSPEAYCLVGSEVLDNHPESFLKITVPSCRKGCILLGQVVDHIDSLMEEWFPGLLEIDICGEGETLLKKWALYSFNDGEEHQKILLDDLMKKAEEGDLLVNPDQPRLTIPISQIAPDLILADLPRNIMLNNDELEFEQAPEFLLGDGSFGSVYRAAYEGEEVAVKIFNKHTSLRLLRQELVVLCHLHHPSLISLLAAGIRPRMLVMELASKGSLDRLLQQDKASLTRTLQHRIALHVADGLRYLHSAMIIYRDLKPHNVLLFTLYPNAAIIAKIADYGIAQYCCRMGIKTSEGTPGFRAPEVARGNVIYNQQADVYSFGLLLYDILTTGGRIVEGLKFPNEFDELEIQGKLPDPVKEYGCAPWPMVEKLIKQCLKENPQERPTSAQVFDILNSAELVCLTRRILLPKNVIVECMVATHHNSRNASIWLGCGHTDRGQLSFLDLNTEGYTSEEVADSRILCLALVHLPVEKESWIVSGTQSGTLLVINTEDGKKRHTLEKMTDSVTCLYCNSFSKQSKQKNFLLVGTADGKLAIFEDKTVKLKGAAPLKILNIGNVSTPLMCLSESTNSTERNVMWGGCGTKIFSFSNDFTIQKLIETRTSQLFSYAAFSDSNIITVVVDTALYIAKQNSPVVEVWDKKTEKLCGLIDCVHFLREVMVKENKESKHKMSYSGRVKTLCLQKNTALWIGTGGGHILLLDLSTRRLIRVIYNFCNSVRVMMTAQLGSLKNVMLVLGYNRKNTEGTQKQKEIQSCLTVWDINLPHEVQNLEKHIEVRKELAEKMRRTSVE

Molecule	stoichiometry N [1]	stoichiometry N [2]	stoichiometry N [3]
leucine-rich repeat kinase 2 (LRRK2), Q5S007 1-2527	4	4	–
Rab29EM (Rab29 Q67L, T71A, S72A) (natural protein, Rab29, a Rab GTPase encoded in the PARK16 locus, with three point mutations; constructs are in the supplementary Materials and Methods; also called Rab29^peri) MGSRDHLFKVLVVGDAAVGKTSLVQRYSQDSFSKHYKSTVGVDFALKVLQWSDYEIVRLQLWDIAGLERFAAMTRLYYRDASACVIMFDVTNATTFSNSQRWKQDLDSKLTLPNGEPVPCLLLANKCDLSPWAVSRDQIDRFSKENGFTGWTETSVKENKNINEAMRVLIEKMMRNS	–	–	1

— paper PMC10786121, “Rab29-dependent asymmetrical activation of leucine-rich repeat kinase 2” (Science (New York, N.Y.), 2023)
